Data published in patent US20250135039A1, “INHIBITOR-RESISTANT MGMT MODIFICATIONS AND MODIFICATION OF MGMT-ENCODING NUCLEIC ACIDS” (Ensoma, Inc., priority 2022, published 2025).
Where a chain is given by its changes, count along the chain named. Numbers in names are those of the source.

Test system: U251 human glioblastoma cell line
Assay: in vitro FM-HCR assay of MGMT activity (mPlum O^6MeG reporter plasmid)
Assay type: cell-based
Details: for Reporter expression (%) mean, O^6BG: 100 μM O^6BG; for Reporter expression (%) mean, O^6BG / Reporter expression (%) mean, DMSO: U251 cells, flow cytometry 24 h after transfection, damaged/undamaged reporter, inversely related to MGMT activity; for Reporter expression (%) mean, DMSO: 0.1% DMSO; for MGMT activity (a.u.) DMSO / MGMT activity (% of WT) DMSO: DMSO condition; for MGMT activity (a.u.) DMSO / MGMT activity (a.u.) O^6BG: determined from percent reporter expression; for MGMT activity (% of WT) DMSO / MGMT activity (% of WT) O^6BG: relative to wild-type MGMT in same condition; for Relative MGMT activity (%): MGMT activity (a.u.) in O^6BG divided by DMSO x 100, higher values indicate resistance; for MGMT activity (a.u.) O^6BG / MGMT activity (% of WT) O^6BG: O^6BG condition; for Ratio percent reporter expression (O^6BG/DMSO): lower values indicate resistance to O^6BG; for O^6BG resistance relative to WT (%): percentage difference in relative MGMT activity between variant and wild-type MGMT
From the text: The present Example includes, in part, an in vitro fluorescence multiplex host cell reactivation (FM-HCR) assay in which a reporter plasmid with O^6MeG-containing oligonucleotides is used. The oligonucleotides induce transcription errors that lead to expression of fluorescent mPlum protein. Functional MGMT will repair the O^6MeG sites and reduce mPlum expression. This represents a rapid and validated assay system to assess intracellular activity of MGMT. Further description of certain such assays is found in Nagel (2014 PNAS USA 111 (18): E1823-32, which is incorporated herein by reference.
The present Example uses an in vitro FM-HCR assay in which a reporter plasmid with 0° MeG-containing oligonucleotides is used to assay MGMT activity in cells. The O^6MeG-containing oligonucleotides induce transcription errors that lead to expression of fluorescent mPlum protein. Functional MGMT will repair the O'MeG sites and reduce mPlum expression. This represents a rapid and validated assay system to assess intracellular activity of MGMT. Further description of certain such assays is found in Nagel et al., 2014 PNAS USA 111 (18): E1823-32 and Piett et al., 2021 Nat. Protoc. 16 (9): 4265-4298, each of which is incorporated herein by reference.
The in vitro FM-HCR assay was performed using the U251 human glioblastoma cell line. The cells were cultured in DMEM with 10% FBS and passaged every three days.
To express MGMT variants in the cells, plasmids encoding each MGMT variant were designed and generated by either de novo synthesis or cloning into the pTwist EF1 Alpha Puro vector at the HindII-BamHI multiple cloning site. The pTwist EF1 Alpha Puro plasmid vector drives expression of the MGMT transcript from a human EF1-alpha promoter including intron 1 and an SV40 polyadenylation signal. Plasmids encoding the MGMT variants were purified using standard molecular biology techniques from E. coli with low endotoxins. Plasmids encoding wild-type MGMT or O^6BG-resistant MGMT^P140K were also designed and generated for use as controls.
To perform the in vitro FM-HCR assay, U251 cells were seeded in 12-well plates at a density of 50,000 cells per well in 1 mL culture media. The following day, the media was changed to 1 mL of culture media containing O^6BG (100 μM O^6BG and 0.1% DMSO final) or 0.1% DMSO; and the cells were transfected with 1,000 ng of a plasmid cocktail using Lipofectamine 3000 (ThermoFisher Scientific) at 1.8 μL Lipofectamine 3000 Reagent and 2 μL P3000 reagent in Opti-MEM medium (ThermoFisher Scientific). […] For the “undamaged” condition, the plasmid cocktail replaced the mPlum O^6MeG reporter plasmid with 100 ng of a plasmid expressing mPlum. The plasmid encoding BFP was used as an internal transfection control. For transfections where no MGMT encoding plasmid is used (no pMGMT), 250 ng of additional carrier plasmid was used to maintain a total DNA amount of 1,000 ng in each transfection. Four hours after transfection, the transfection medium was changed.
All transfected cells were analyzed by flow cytometry at 24-hours after transfection. Data was analyzed as previously described in Nagel et al., 2014 PNAS USA 111 (18): E1823-32 and Piett et al., 2021 Nat. Protoc. 16 (9): 4265-4298. For each condition, normalized reporter expression was determined by taking the product of the mPlum-positive cell count and the mean mPlum fluorescence intensity in mPlum-positive cells and dividing it by the product of the BFP-positive cell count and the mean BFP fluorescence intensity in BFP-positive cells. Next, for each MGMT variant, the percent reporter expression was determined by taking the normalized reporter expression in the “damaged” condition and dividing it by the normalized reporter expression in the “undamaged” condition, and then multiplying by 100 to obtain a percent value. […]

B1: P140K: O^6BG-resistant MGMT polypeptide with K at position 140, SEQ ID NO: 8; used as control (protein)
chain: MDKDCEMKRTTLDSPLGKLELSGCEQGLHEIKLLGKGTSAADAVEVPAPAAVLGGPEPLMQCTAWLNAYFHQPEAIEEFPVPALHHPVFQQESFTRQVLWKLLKVVKFGEVISYQQLAALAGNPKAARAVGGAMRGNPVKILIPCHRVVCSSGAVGNYSGGLAVKEWLLAHEGHRLGKPGLGGSSGLAGAWLKGAGATSGSPPAGRN
modifications: REGION 1..207: note = Synthetic: MGMTP140K
notes: used as control
Reporter expression (%) mean, O^6BG: 34.8%
Reporter expression (%) mean, DMSO: 30.2%
MGMT activity (a.u.) DMSO: 3.31 a.u.
MGMT activity (% of WT) DMSO: 61.3 % of WT
Relative MGMT activity (%): 86.8%
MGMT activity (a.u.) O^6BG: 2.87 a.u.
MGMT activity (% of WT) O^6BG: 201.1 % of WT
Ratio percent reporter expression (O^6BG/DMSO): 1.15
O^6BG resistance relative to WT (%): 228.4%

B2: M134V: MGMT polypeptide with mutation M134V (protein)
chain: B1 chain with M134V, K140P
Reporter expression (%) mean, O^6BG: 66.0%
Reporter expression (%) mean, DMSO: 17.8%
MGMT activity (a.u.) DMSO: 5.63 a.u.
MGMT activity (% of WT) DMSO: 104.2 % of WT
Relative MGMT activity (%): 26.9%
MGMT activity (a.u.) O^6BG: 1.52 a.u.
MGMT activity (% of WT) O^6BG: 106.1 % of WT
Ratio percent reporter expression (O^6BG/DMSO): 3.72
O^6BG resistance relative to WT (%): 1.8%

B3: L33R: MGMT polypeptide with mutation L33R (protein)
chain: B1 chain with L33R, K140P
Reporter expression (%) mean, O^6BG: 58.3%
Reporter expression (%) mean, DMSO: 15.0%
MGMT activity (a.u.) DMSO: 6.67 a.u.
MGMT activity (% of WT) DMSO: 123.3 % of WT
Relative MGMT activity (%): 25.7%
MGMT activity (a.u.) O^6BG: 1.71 a.u.
MGMT activity (% of WT) O^6BG: 120.0 % of WT
Ratio percent reporter expression (O^6BG/DMSO): 3.89
O^6BG resistance relative to WT (%): −2.7%

B4: M134F: MGMT polypeptide with mutation M134F (protein)
chain: B1 chain with M134F, K140P
Reporter expression (%) mean, O^6BG: 97.0%
Reporter expression (%) mean, DMSO: 51.3%
MGMT activity (a.u.) DMSO: 1.95 a.u.
MGMT activity (% of WT) DMSO: 36.0 % of WT
Relative MGMT activity (%): 52.9%
MGMT activity (a.u.) O^6BG: 1.03 a.u.
MGMT activity (% of WT) O^6BG: 72.2 % of WT
Ratio percent reporter expression (O^6BG/DMSO): 1.89
O^6BG resistance relative to WT (%): 100.2%

B5: M134Y: MGMT polypeptide with mutation M134Y (protein)
chain: B1 chain with M134Y, K140P
Reporter expression (%) mean, O^6BG: 106.3%
Reporter expression (%) mean, DMSO: 108.0%
MGMT activity (a.u.) DMSO: 0.93 a.u.
MGMT activity (% of WT) DMSO: 17.1 % of WT
Relative MGMT activity (%): 101.6%
MGMT activity (a.u.) O^6BG: 0.94 a.u.
MGMT activity (% of WT) O^6BG: 65.8 % of WT
Ratio percent reporter expression (O^6BG/DMSO): 0.98
O^6BG resistance relative to WT (%): 284.3%

B6: L33F: MGMT polypeptide with mutation L33F (protein)
chain: B1 chain with L33F, K140P
Reporter expression (%) mean, O^6BG: 77.0%
Reporter expression (%) mean, DMSO: 14.3%
MGMT activity (a.u.) DMSO: 6.98 a.u.
MGMT activity (% of WT) DMSO: 129.1 % of WT
Relative MGMT activity (%): 18.6%
MGMT activity (a.u.) O^6BG: 1.30 a.u.
MGMT activity (% of WT) O^6BG: 90.9 % of WT
Ratio percent reporter expression (O^6BG/DMSO): 5.37
O^6BG resistance relative to WT (%): −29.6%

B7: M134W: MGMT polypeptide with mutation M134W (protein)
chain: B1 chain with M134W, K140P
Reporter expression (%) mean, O^6BG: 112.3%
Reporter expression (%) mean, DMSO: 103.5%
MGMT activity (a.u.) DMSO: 0.97 a.u.
MGMT activity (% of WT) DMSO: 17.9 % of WT
Relative MGMT activity (%): 92.1%
MGMT activity (a.u.) O^6BG: 0.89 a.u.
MGMT activity (% of WT) O^6BG: 62.3 % of WT
Ratio percent reporter expression (O^6BG/DMSO): 1.09
O^6BG resistance relative to WT (%): 248.6%

B8: L33P: MGMT polypeptide with mutation L33P (protein)
chain: B1 chain with L33P, K140P
Reporter expression (%) mean, O^6BG: 54.7%
Reporter expression (%) mean, DMSO: 12.3%
MGMT activity (a.u.) DMSO: 8.11 a.u.
MGMT activity (% of WT) DMSO: 150.0 % of WT
Relative MGMT activity (%): 22.6%
MGMT activity (a.u.) O^6BG: 1.83 a.u.
MGMT activity (% of WT) O^6BG: 128.0 % of WT
Ratio percent reporter expression (O^6BG/DMSO): 4.43
O^6BG resistance relative to WT (%): −14.6%

B9: L33K: MGMT polypeptide with mutation L33K (protein)
chain: B1 chain with L33K, K140P
Reporter expression (%) mean, O^6BG: 62.3%
Reporter expression (%) mean, DMSO: 16.0%
MGMT activity (a.u.) DMSO: 6.25 a.u.
MGMT activity (% of WT) DMSO: 115.6 % of WT
Relative MGMT activity (%): 25.7%
MGMT activity (a.u.) O^6BG: 1.61 a.u.
MGMT activity (% of WT) O^6BG: 112.4 % of WT
Ratio percent reporter expression (O^6BG/DMSO): 3.89
O^6BG resistance relative to WT (%): −2.7%

B10: L33W: MGMT polypeptide with mutation L33W (protein)
chain: B1 chain with L33W, K140P
Reporter expression (%) mean, O^6BG: 57.7%
Reporter expression (%) mean, DMSO: 14.3%
MGMT activity (a.u.) DMSO: 6.98 a.u.
MGMT activity (% of WT) DMSO: 129.1 % of WT
Relative MGMT activity (%): 24.9%
MGMT activity (a.u.) O^6BG: 1.73 a.u.
MGMT activity (% of WT) O^6BG: 121.4 % of WT
Ratio percent reporter expression (O^6BG/DMSO): 4.02
O^6BG resistance relative to WT (%): −6.0%

B11: L33Y: MGMT polypeptide with mutation L33Y (protein)
chain: B1 chain with L33Y, K140P
Reporter expression (%) mean, O^6BG: 77.3%
Reporter expression (%) mean, DMSO: 17.0%
MGMT activity (a.u.) DMSO: 5.88 a.u.
MGMT activity (% of WT) DMSO: 108.8 % of WT
Relative MGMT activity (%): 22.0%
MGMT activity (a.u.) O^6BG: 1.29 a.u.
MGMT activity (% of WT) O^6BG: 90.6 % of WT
Ratio percent reporter expression (O^6BG/DMSO): 4.54
O^6BG resistance relative to WT (%): −16.7%
